In patent US20230414781A1 (BLISS BIOPHARMACEUTICAL HANGZHOU, published 2023):

T1: B7-H3 on B7-H3-expressing cancer cells (UniProt Q5ZPR3 29-534, limits assumed)
T1 construct: whole, on cells; Endogenous expression on tumour cell lines; also called B7-H3 expressing cells; CD276
T1 sequence (looked up): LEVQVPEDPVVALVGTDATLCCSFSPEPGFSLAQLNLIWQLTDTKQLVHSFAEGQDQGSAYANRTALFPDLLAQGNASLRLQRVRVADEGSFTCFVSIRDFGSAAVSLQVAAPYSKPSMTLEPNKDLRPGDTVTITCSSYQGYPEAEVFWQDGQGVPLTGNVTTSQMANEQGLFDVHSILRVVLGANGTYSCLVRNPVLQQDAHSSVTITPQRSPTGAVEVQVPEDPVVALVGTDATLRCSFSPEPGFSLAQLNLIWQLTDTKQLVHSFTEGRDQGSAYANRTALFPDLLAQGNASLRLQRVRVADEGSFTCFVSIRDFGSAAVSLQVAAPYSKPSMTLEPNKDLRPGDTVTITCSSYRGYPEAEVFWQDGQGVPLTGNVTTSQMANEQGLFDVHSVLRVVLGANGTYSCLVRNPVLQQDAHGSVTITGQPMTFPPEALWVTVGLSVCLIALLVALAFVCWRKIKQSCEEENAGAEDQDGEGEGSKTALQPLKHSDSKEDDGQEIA

B1: 27B4H4L3 antibody (antibody, human IgG1, kappa)
heavy: EVQLVQSGAEVKKPGESLKISCKASGYTFTTYWIGWVRQMPGKGLEWMGIIYPGDGGSRYSPSFQGQVTISADKSISTAYLQWSSLKASDTAMYYCARGGNYISFPMYYWGQGTLVTVSSASTKGPSVFPLAPSSKSTSGGTAALGCLVKDYFPEPVTVSWNSGALTSGVHTFPAVLQSSGLYSLSSVVTVPSSSLGTQTYICNVNHKPSNTKVDKRVEPKSCDKTHTCPPCPAPELVGGPSVFLLPPKPKDTLMISRTPEVTCVVVDVSHEDPEVKFNWYVDGVEVHNAKTKPPEEQYNSTLRVVSVLTVLHQDWLNGKEYKCKVSNKALPAPIEKTISKAKGQPREPQVYTLPPSREEMTKNQVSLTCLVKGFYPSDIAVEWESNGQPENNYKTTPLVLDSDGSFFLYSKLTVDKSRWQQGNVFSCSVMHEALHNHYTQKSLSLSPGK
light: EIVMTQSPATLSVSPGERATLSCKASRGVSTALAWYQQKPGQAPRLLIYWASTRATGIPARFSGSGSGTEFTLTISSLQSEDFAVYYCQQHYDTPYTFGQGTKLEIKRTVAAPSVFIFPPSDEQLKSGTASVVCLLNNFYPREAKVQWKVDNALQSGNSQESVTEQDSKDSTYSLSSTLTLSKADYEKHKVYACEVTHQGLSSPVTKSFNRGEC
notes: also called 27B4H43L3
B2: 27B4H4L3-MMAE (antibody, human IgG1, kappa)
heavy: B1 heavy
light: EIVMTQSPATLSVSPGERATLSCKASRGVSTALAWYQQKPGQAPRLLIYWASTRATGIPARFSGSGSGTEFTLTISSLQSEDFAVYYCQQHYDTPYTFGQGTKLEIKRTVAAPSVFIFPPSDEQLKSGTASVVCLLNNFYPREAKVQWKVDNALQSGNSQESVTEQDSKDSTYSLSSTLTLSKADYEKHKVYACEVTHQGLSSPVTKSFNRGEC
modifications: may carry MC-Val-Cit-PAB-MMAE on an inter-chain disulfide cysteine; positions not given; MC-Val-Cit-PAB-MMAE drug-linker on cysteines of partially reduced inter-chain disulfide bonds; main peaks DAR2, DAR4, DAR6, minor DAR0 and DAR8; positions not given
notes: a mixture of DAR species; also called ADC made of 27B4H4L3 antibody

Key:
[1] = molecular target: T1, B7-H3 on B7-H3-expressing cancer cells; assay: FACS on BT-474 (breast) cells
Procedure: (§1) Screening for B7-H3-expressing cells were performed using FACS with 27B4H4L3 antibody and MFI of 27B4H4L3 to those cells shown in Table 2. FACS assay was also used to exam and compare the binding capabilities of the 27B4H4L3 antibody, BH73 antibody, 27B4H4L3-MMAE and BH73-Eribulin to B7-H3-expressing cells. To perform the assay, target cells and samples were incubated at 4° C. for 1 h. After wash, samples and secondary antibody (goat pAb to human IgG (FITC) (Abcam, ab97224)) were incubated. FACS was performed on […] (BD, Accuri C6 Plus) and mean fluorescence intensity (MFI) was reported. Three cell lines (U87MG, BT-474 and HT-29) representing B7-H3 high- and low-expressing cells were used to compare binding capacities of different antibody constructs and ADCs.

[2] = molecular target: T1, B7-H3 on B7-H3-expressing cancer cells; assay: FACS on U87 (glioma) cells
Procedure: as §1

[3] = molecular target: T1, B7-H3 on B7-H3-expressing cancer cells; assay: FACS on HT-29 (colon) cells
Procedure: as §1

| Binder | MFI [1] [MFI] | MFI [2] [MFI] | MFI [3] [MFI] |
| --- | --- | --- | --- |
| B1 | 126000 | 314000 | 69500 |
| B2 | 126000 | 290000 | 65300 |
